The data set has as its target DNase I (UniProt P00639). Nature of the data set: cleavage_in_vitro. Particulars: 2'-F at all nucleotides; 100 mM NaOAc, 5 mM MgCl2, 37 C, 5 min.

A value given as a limit tells only on which side of the number the result lay.

Chain of DNase I (P00639 23-282): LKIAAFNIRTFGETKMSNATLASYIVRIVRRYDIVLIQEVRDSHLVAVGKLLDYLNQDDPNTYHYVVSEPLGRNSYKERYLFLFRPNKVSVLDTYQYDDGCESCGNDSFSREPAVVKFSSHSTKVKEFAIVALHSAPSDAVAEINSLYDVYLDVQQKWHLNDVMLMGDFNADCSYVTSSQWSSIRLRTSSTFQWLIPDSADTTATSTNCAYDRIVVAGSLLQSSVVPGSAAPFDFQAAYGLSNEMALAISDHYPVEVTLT

In the case of “NNNNNNNNNNNNNNNNNNNNNNNNNNNNNNNNNNNNNNNNCACGAGTGAAGTCTGAGCTCC [BSA-1A FNA library (primer removed)]”, the activity (fold more stable than DNA) was greater than 100.

These data come from patent publication US20080070238.
